Starred links: 1 amine or outer side, 2 acyl side, 3 side chain; linkers in the order of their positions; H or OH if unused. Non-standard residues stand in square brackets, D forms with d. Groups on a side chain read outwards from the residue. No end group written: not given here. *: point of attachment. C18 diacid = O=C(O)CCCCCCCCCCCCCCCCC(=O)*; γGlu = O=C(O)[C@H](CCC(=O)[*:2])N[*:1]; εLys = N[C@@H](CCCCN[*:1])C(=O)[*:2]; AEEA = NCCOCCOCC(=O)O; Aib = CC(C)(N)C(=O)O

B1: Compound No. 18 (peptide)
peptide: Y[Aib]EGTFTSDYSILLEK([εLys-εLys-γGlu-C18 diacid])QAAREFINWLLAG-OH
modifications: N-terminus assumed
SMILES: CC[C@H](C)[C@H](NC(=O)[C@H](Cc1ccccc1)NC(=O)[C@H](CCC(=O)O)NC(=O)[C@H](CCCNC(=N)N)NC(=O)[C@H](C)NC(=O)[C@H](C)NC(=O)[C@H](CCC(N)=O)NC(=O)[C@H](CCCCNC(=O)[C@@H](N)CCCCNC(=O)[C@@H](N)CCCCNC(=O)CC[C@H](NC(=O)CCCCCCCCCCCCCCCCC(=O)O)C(=O)O)NC(=O)[C@H](CCC(=O)O)NC(=O)[C@H](CC(C)C)NC(=O)[C@H](CC(C)C)NC(=O)[C@@H](NC(=O)[C@H](CO)NC(=O)[C@H](Cc1ccc(O)cc1)NC(=O)[C@H](CC(=O)O)NC(=O)[C@H](CO)NC(=O)[C@@H](NC(=O)[C@H](Cc1ccccc1)NC(=O)[C@@H](NC(=O)CNC(=O)[C@H](CCC(=O)O)NC(=O)C(C)(C)NC(=O)[C@@H](N)Cc1ccc(O)cc1)[C@@H](C)O)[C@@H](C)O)[C@@H](C)CC)C(=O)N[C@@H](CC(N)=O)C(=O)N[C@@H](Cc1c[nH]c2ccccc12)C(=O)N[C@@H](CC(C)C)C(=O)N[C@@H](CC(C)C)C(=O)N[C@@H](C)C(=O)NCC(=O)O
B2: Compound No. 20 (peptide)
peptide: Y[Aib]EGTFTSDYSILLEK([εLys-εLys-γGlu-C18 diacid])QAAREFINWLLAGGPSS-OH
modifications: N-terminus assumed
SMILES: CC[C@H](C)[C@H](NC(=O)[C@H](Cc1ccccc1)NC(=O)[C@H](CCC(=O)O)NC(=O)[C@H](CCCNC(=N)N)NC(=O)[C@H](C)NC(=O)[C@H](C)NC(=O)[C@H](CCC(N)=O)NC(=O)[C@H](CCCCNC(=O)[C@@H](N)CCCCNC(=O)[C@@H](N)CCCCNC(=O)CC[C@H](NC(=O)CCCCCCCCCCCCCCCCC(=O)O)C(=O)O)NC(=O)[C@H](CCC(=O)O)NC(=O)[C@H](CC(C)C)NC(=O)[C@H](CC(C)C)NC(=O)[C@@H](NC(=O)[C@H](CO)NC(=O)[C@H](Cc1ccc(O)cc1)NC(=O)[C@H](CC(=O)O)NC(=O)[C@H](CO)NC(=O)[C@@H](NC(=O)[C@H](Cc1ccccc1)NC(=O)[C@@H](NC(=O)CNC(=O)[C@H](CCC(=O)O)NC(=O)C(C)(C)NC(=O)[C@@H](N)Cc1ccc(O)cc1)[C@@H](C)O)[C@@H](C)O)[C@@H](C)CC)C(=O)N[C@@H](CC(N)=O)C(=O)N[C@@H](Cc1c[nH]c2ccccc12)C(=O)N[C@@H](CC(C)C)C(=O)N[C@@H](CC(C)C)C(=O)N[C@@H](C)C(=O)NCC(=O)NCC(=O)N1CCC[C@H]1C(=O)N[C@@H](CO)C(=O)N[C@@H](CO)C(=O)O
B3: Compound No. 19 (peptide)
peptide: Y[Aib]EGTFTSDYSILLEK([εLys-εLys-γGlu-C18 diacid])QAAREFINWLLAGGP-OH
modifications: N-terminus assumed
SMILES: CC[C@H](C)[C@H](NC(=O)[C@H](Cc1ccccc1)NC(=O)[C@H](CCC(=O)O)NC(=O)[C@H](CCCNC(=N)N)NC(=O)[C@H](C)NC(=O)[C@H](C)NC(=O)[C@H](CCC(N)=O)NC(=O)[C@H](CCCCNC(=O)[C@@H](N)CCCCNC(=O)[C@@H](N)CCCCNC(=O)CC[C@H](NC(=O)CCCCCCCCCCCCCCCCC(=O)O)C(=O)O)NC(=O)[C@H](CCC(=O)O)NC(=O)[C@H](CC(C)C)NC(=O)[C@H](CC(C)C)NC(=O)[C@@H](NC(=O)[C@H](CO)NC(=O)[C@H](Cc1ccc(O)cc1)NC(=O)[C@H](CC(=O)O)NC(=O)[C@H](CO)NC(=O)[C@@H](NC(=O)[C@H](Cc1ccccc1)NC(=O)[C@@H](NC(=O)CNC(=O)[C@H](CCC(=O)O)NC(=O)C(C)(C)NC(=O)[C@@H](N)Cc1ccc(O)cc1)[C@@H](C)O)[C@@H](C)O)[C@@H](C)CC)C(=O)N[C@@H](CC(N)=O)C(=O)N[C@@H](Cc1c[nH]c2ccccc12)C(=O)N[C@@H](CC(C)C)C(=O)N[C@@H](CC(C)C)C(=O)N[C@@H](C)C(=O)NCC(=O)NCC(=O)N1CCC[C@H]1C(=O)O
B4: Compound No. 21 (peptide)
peptide: Y[Aib]EGTFTSDYSILLEK([εLys-εLys-γGlu-C18 diacid])QAAREFINWLLAGGPSSGA-OH
modifications: N-terminus assumed
SMILES: CC[C@H](C)[C@H](NC(=O)[C@H](Cc1ccccc1)NC(=O)[C@H](CCC(=O)O)NC(=O)[C@H](CCCNC(=N)N)NC(=O)[C@H](C)NC(=O)[C@H](C)NC(=O)[C@H](CCC(N)=O)NC(=O)[C@H](CCCCNC(=O)[C@@H](N)CCCCNC(=O)[C@@H](N)CCCCNC(=O)CC[C@H](NC(=O)CCCCCCCCCCCCCCCCC(=O)O)C(=O)O)NC(=O)[C@H](CCC(=O)O)NC(=O)[C@H](CC(C)C)NC(=O)[C@H](CC(C)C)NC(=O)[C@@H](NC(=O)[C@H](CO)NC(=O)[C@H](Cc1ccc(O)cc1)NC(=O)[C@H](CC(=O)O)NC(=O)[C@H](CO)NC(=O)[C@@H](NC(=O)[C@H](Cc1ccccc1)NC(=O)[C@@H](NC(=O)CNC(=O)[C@H](CCC(=O)O)NC(=O)C(C)(C)NC(=O)[C@@H](N)Cc1ccc(O)cc1)[C@@H](C)O)[C@@H](C)O)[C@@H](C)CC)C(=O)N[C@@H](CC(N)=O)C(=O)N[C@@H](Cc1c[nH]c2ccccc12)C(=O)N[C@@H](CC(C)C)C(=O)N[C@@H](CC(C)C)C(=O)N[C@@H](C)C(=O)NCC(=O)NCC(=O)N1CCC[C@H]1C(=O)N[C@@H](CO)C(=O)N[C@@H](CO)C(=O)NCC(=O)N[C@@H](C)C(=O)O
B5: Compound No. 10 (peptide)
peptide: Y[Aib]EGTFTSDYSIYLEK([AEEA-AEEA-γGlu-C18 diacid])QAAREFIEWLLAGGPSSGAPPPS-OH
modifications: N-terminus assumed
SMILES: CC[C@H](C)[C@H](NC(=O)[C@H](Cc1ccccc1)NC(=O)[C@H](CCC(=O)O)NC(=O)[C@H](CCCNC(=N)N)NC(=O)[C@H](C)NC(=O)[C@H](C)NC(=O)[C@H](CCC(N)=O)NC(=O)[C@H](CCCCNC(=O)COCCOCCNC(=O)COCCOCCNC(=O)CC[C@H](NC(=O)CCCCCCCCCCCCCCCCC(=O)O)C(=O)O)NC(=O)[C@H](CCC(=O)O)NC(=O)[C@H](CC(C)C)NC(=O)[C@H](Cc1ccc(O)cc1)NC(=O)[C@@H](NC(=O)[C@H](CO)NC(=O)[C@H](Cc1ccc(O)cc1)NC(=O)[C@H](CC(=O)O)NC(=O)[C@H](CO)NC(=O)[C@@H](NC(=O)[C@H](Cc1ccccc1)NC(=O)[C@@H](NC(=O)CNC(=O)[C@H](CCC(=O)O)NC(=O)C(C)(C)NC(=O)[C@@H](N)Cc1ccc(O)cc1)[C@@H](C)O)[C@@H](C)O)[C@@H](C)CC)C(=O)N[C@@H](CCC(=O)O)C(=O)N[C@@H](Cc1c[nH]c2ccccc12)C(=O)N[C@@H](CC(C)C)C(=O)N[C@@H](CC(C)C)C(=O)N[C@@H](C)C(=O)NCC(=O)NCC(=O)N1CCC[C@H]1C(=O)N[C@@H](CO)C(=O)N[C@@H](CO)C(=O)NCC(=O)N[C@@H](C)C(=O)N1CCC[C@H]1C(=O)N1CCC[C@H]1C(=O)N1CCC[C@H]1C(=O)N[C@@H](CO)C(=O)O

In the first assay the target is human GLP-1 receptor (human, UniProt P43220 24-463). Nature of the assay: cell-based or functional assay.
human GLP-1 receptor, sequence (P43220 24-463): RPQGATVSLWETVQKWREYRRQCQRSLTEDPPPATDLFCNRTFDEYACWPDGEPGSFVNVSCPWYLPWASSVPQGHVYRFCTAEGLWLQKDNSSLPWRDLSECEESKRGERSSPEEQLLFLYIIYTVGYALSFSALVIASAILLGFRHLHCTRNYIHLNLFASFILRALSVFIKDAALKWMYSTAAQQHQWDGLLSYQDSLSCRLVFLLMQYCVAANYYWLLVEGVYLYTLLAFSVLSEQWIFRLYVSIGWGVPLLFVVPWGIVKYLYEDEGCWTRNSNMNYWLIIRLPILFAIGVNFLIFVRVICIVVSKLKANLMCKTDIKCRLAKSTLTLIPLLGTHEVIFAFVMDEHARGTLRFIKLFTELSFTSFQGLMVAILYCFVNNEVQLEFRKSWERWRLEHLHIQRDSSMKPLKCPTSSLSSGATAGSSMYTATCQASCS
Take B1: the “hGLP-1R, CRE Luc 0% HSA EC50 (pM)” value was found to be 19.7 pM and the “hGLP-1R, CRE Luc 1% HSA EC50 (pM)” value turned out to be 226 pM.

As to B2, the “hGLP-1R, CRE Luc 0% HSA EC50 (pM)” value worked out at 4.2 pM and the “hGLP-1R, CRE Luc 1% HSA EC50 (pM)” value was 256 pM.

Consider B3, for which the “hGLP-1R, CRE Luc 0% HSA EC50 (pM)” value stood at 8.6 pM and the “hGLP-1R, CRE Luc 1% HSA EC50 (pM)” value was found to be 365 pM.

Regarding B4, the “hGLP-1R, CRE Luc 0% HSA EC50 (pM)” value came out at 5.7 pM and the “hGLP-1R, CRE Luc 1% HSA EC50 (pM)” value amounted to 118 pM.

The next assay deals with T1, human GIP receptor (human, UniProt P48546 22-466).
T1 sequence (looked up): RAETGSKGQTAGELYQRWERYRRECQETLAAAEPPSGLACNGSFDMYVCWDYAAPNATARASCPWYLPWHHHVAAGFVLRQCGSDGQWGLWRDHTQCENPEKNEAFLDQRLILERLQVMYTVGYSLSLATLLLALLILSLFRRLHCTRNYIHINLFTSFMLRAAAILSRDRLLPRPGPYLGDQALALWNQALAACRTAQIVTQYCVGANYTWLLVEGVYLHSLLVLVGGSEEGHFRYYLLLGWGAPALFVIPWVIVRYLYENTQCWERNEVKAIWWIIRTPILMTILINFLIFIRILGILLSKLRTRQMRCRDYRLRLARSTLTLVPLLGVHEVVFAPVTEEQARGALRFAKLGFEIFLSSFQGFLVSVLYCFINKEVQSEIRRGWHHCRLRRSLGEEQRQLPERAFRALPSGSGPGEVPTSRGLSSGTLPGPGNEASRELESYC
Nature of the assay: cell-based or functional assay.
Regarding “human GIP (from UniProt P09681 52-93) (ligand)”, the hGIPR, CRE Luc 0% HSA EC50 (pM) was found to be 11.3 pM and the hGIPR, CRE Luc 1% HSA EC50 (pM) amounted to 6.4 pM.

On to B5, for which the “hGIPR, CRE Luc 0% HSA EC50 (pM)” value is 11.3 pM.

Consider B1, for which the “hGIPR, CRE Luc 0% HSA EC50 (pM)” value was determined as 20.9 pM and the “hGIPR, CRE Luc 1% HSA EC50 (pM)” value amounted to 285 pM.

As to B2, the “hGIPR, CRE Luc 0% HSA EC50 (pM)” value was determined as 7.1 pM and the “hGIPR, CRE Luc 1% HSA EC50 (pM)” value amounted to 247 pM.

Consider B3, for which the “hGIPR, CRE Luc 0% HSA EC50 (pM)” value was determined as 6.5 pM and the “hGIPR, CRE Luc 1% HSA EC50 (pM)” value turned out to be 275 pM.

On to B4, for which the “hGIPR, CRE Luc 0% HSA EC50 (pM)” value turned out to be 5.4 pM and the “hGIPR, CRE Luc 1% HSA EC50 (pM)” value was 131 pM.

(Values after patent US20220125940A1 (Novo Nordisk, published 2022).)
